Data from PMC6543813.
pKd: −log10 of the molar value. Read-outs that look alike come from different tables or passages of the source.

Tests used:
[1] = target: recombinant VLDLR(1–8) fragment of the VLDL receptor; assay: SPR
[2] = target: (β15–66)2-R^30 mutant fragment (UniProt P02675); assay: ELISA
[3] = target: (β15–66)2-K^53K^54K^58 mutant fragment (UniProt P02675); assay: ELISA
[4] = target: (β15–66)2-K^21K^22 mutant fragment (UniProt P02675); assay: ELISA
[5] = target: recombinant dimeric (β15–66)2 fragment (UniProt P02675); assay: ELISA
[6] = target: recombinant (β15–66)2-R^17 mutant with Arg17Glu mutation (UniProt P02675); assay: ELISA
[7] = target: (β15–66)2-R^57 mutant fragment (UniProt P02675); assay: ELISA
[8] = target: recombinant dimeric (β15–66)2 fragment (UniProt P02675); assay: ELISA; remark: listed apart in the source
[9] = target: recombinant VLDLR(1–8) fragment of the VLDL receptor; assay: SPR; remark: listed apart in the source

| Substance | pKd [1] | also measured |
| --- | --- | --- |
| (β15–66)2-K^21K^22 mutant fragment (from UniProt P02675 45-94) (domain or fragment) | 7.43 |  |
| (β15–66)2-K^53K^54K^58 mutant fragment (from UniProt P02675 45-94) (domain or fragment) | 6.60 |  |
| (β15–66)2-K^53K^54R^57K^58 mutant fragment (from UniProt P02675 45-94) (domain or fragment) | 4.93 |  |
| (β15–66)2-R^42R^44 mutant fragment (from UniProt P02675 45-94) (domain or fragment) | 6.69 |  |
| (β15–66)2-R^42R^44K^47 mutant fragment (from UniProt P02675 45-94) (domain or fragment) | 5.21 |  |
| recombinant VLDLR(1–8) fragment of the VLDL receptor (domain or fragment) |  | pKd [2]: 8.20; pKd [3]: 6.91; pKd [4]: 7.68; pKd [5]: 7.87; pKd [6]: 8.14; pKd [7]: 8.19; pKd [8]: 7.47 |
| recombinant monomeric β15–64 fragment (from UniProt P02675 45-94) (domain or fragment) | 5.21 |  |

Now from value to substance, other results behind:

| pKd [1] | Substance | also measured |
| --- | --- | --- |
| 6.76 | (β15–66)2-K^21K^22R^23 mutant fragment (from UniProt P02675 45-94) (domain or fragment) |  |
| 7.95 | recombinant dimeric (β15–66)2 fragment (from UniProt P02675 45-94) (domain or fragment) | pKd [9]: 7.69 |
